Experimental data from article doi:10.1101/2024.07.31.606000.
pKd: −log10 of the molar value.

Molecular target: recombinant full-length thrombospondin-1 (human) (UniProt P07996)
Assay: SPR

Sequence of recombinant full-length thrombospondin-1 (human) (P07996 19-1170): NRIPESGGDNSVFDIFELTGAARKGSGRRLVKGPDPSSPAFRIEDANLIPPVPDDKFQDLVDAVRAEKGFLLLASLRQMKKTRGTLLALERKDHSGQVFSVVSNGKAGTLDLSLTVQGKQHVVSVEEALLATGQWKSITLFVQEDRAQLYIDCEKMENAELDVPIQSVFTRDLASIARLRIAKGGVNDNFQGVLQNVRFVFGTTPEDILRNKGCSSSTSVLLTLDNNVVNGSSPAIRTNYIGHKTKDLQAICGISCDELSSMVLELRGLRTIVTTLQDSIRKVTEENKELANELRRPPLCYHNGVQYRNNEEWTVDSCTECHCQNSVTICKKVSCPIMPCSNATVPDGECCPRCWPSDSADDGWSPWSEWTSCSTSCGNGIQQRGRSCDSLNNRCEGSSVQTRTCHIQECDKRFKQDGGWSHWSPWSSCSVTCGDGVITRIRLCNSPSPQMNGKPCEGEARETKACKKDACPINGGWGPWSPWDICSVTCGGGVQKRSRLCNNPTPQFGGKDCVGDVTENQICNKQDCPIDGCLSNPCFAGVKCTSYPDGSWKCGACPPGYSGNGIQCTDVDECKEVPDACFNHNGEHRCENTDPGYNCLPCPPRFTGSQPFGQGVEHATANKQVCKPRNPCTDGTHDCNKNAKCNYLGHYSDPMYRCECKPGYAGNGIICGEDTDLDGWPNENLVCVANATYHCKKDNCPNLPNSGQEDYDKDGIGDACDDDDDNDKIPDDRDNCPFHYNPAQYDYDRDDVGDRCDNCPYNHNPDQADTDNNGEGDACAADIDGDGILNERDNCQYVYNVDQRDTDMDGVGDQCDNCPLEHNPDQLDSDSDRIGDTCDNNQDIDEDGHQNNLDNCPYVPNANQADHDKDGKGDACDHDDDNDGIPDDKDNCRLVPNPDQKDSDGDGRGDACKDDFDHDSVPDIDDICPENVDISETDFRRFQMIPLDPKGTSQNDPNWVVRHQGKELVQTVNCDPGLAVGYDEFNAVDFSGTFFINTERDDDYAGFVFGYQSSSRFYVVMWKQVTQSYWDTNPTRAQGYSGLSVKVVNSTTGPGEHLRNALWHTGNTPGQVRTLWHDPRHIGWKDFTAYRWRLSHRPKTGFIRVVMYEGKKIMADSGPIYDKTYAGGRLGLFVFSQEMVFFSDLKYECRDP

Substance | pKd
complement C3 (natural protein) | 6.90
complement C5 (natural protein) | 7.33
